How the values were obtained:
Experiment in all cases: indirect ELISA, protein coated, culture supernatant at 1/50
[1] = biological target: T1, native low-molecular-weight glutenin
T1 construct: also called LMW
Procedure: (§1) 100 μl of proteins at 1 μg/ml in 50 mM carbonate buffer, pH 9.6, are incubated overnight at 4° C. at the bottom of a 96-well, bottom, plate (Nunc, Maxisorb). After 3 washes with PBS-0.05% Tween 20, an incubation with PBS-2% (w/v) milk is carried out. The PEE 14C7 monoclonal antibody (100 μl of various dilutions of antibody in PBS-0.1% (w/v) milk) is incubated for 1 h at ambient temperature. After washes with PBS-0.05% Tween 20, 100 μl of the peroxidase-coupled goat anti-mouse IgG secondary antibody (ref: 170-6516, Bio-Rad) diluted to 1/3000 is incubated for 1 h at ambient temperature under the same conditions as the primary antibody. After 3 washes, the OPD (0-phenylenediamine, ref: P-1526, Sigma) substrate is incubated for 30 min in the dark. The reaction is stopped by adding 50 μl of H2SO₄ 4N. The optical densities are read at dual wavelength (490 nm for measuring the hydrolysis of the substrate and 630 nm for eliminating the background noise) on a plate spectrometer (Bioteck, E1x808-1).
(§2) The percentages of reactivity of the antibody with respect to each protein are determined as described in Tranquet et al. (2012). In the present case, the percentages are determined at the 1/50 dilution of the culture supernatant (i.e. the strongest dilution which makes it possible to obtain the strongest absorbence on the best-recognized protein—deamidated gamma-gliadins). The percentage recognition of a protein X is obtained by calculating the Protein X absorbence/deamidated gamma-gliadin absorbence ratio.

native ω-2 gliadin = biological target: T2, native ω-2 gliadin
T2 construct: also called non-deamidated ω-2 gliadin
Procedure: as §1, §2

[2] = biological target: T3, deamidated low-molecular weight glutenin
T3 construct: also called Glut; LMW-D; deam; LMW
Procedure: as §1, §2

native β-gliadin = biological target: T4, native β-gliadin
T4 construct: also called non-deamidated β-gliadin
Procedure: as §1, §2

native α-gliadin = biological target: T5, native α-gliadin
T5 construct: also called non-deamidated α-gliadin
Procedure: as §1, §2

deamidated ω-2 gliadin = biological target: T6, deamidated ω-2 gliadin
T6 construct: also called ω2-D; deam. ω2
Procedure: as §1, §2

deamidated ω-5 gliadin = biological target: T7, deamidated ω-5 gliadin
T7 construct: also called ω5-D; deam. ω5
Procedure: as §1, §2

[3] = biological target: T8, native high-molecular-weight glutenin
T8 construct: also called HMW
Procedure: as §1, §2

native γ-gliadin = biological target: T9, native γ-gliadin
T9 construct: also called non-deamidated γ-gliadin
Procedure: as §1, §2

[4] = biological target: non-deamidated native ω-5 gliadin
Procedure: as §1, §2

deamidated α-gliadin = biological target: T10, deamidated α-gliadin
T10 construct: also called α-D; deam. α
Procedure: as §1, §2

B1: PEE 14C7 monoclonal antibody (antibody, IgG1, V domains shown)
VH: DVQLQESGPDLVKPSQSLSLTCTVTGYSITSGYSWHWIRQFPGNKLEWMGYIHYSGSTNYNPSLKSRISITRDTSKNQFFLQLNSVTTEDTATYYCASGYFDVWGAGTTVTVSS
VL: DVVMTQTPLSLPVSLGDQASISCRSSQSLVHSNGNTYLHWYLQKPGQSPKLLIYKVSNRFSGVPDRFSGSGSGTDFTLKISRVEAEDLGVYFCSQSTLVPWTFGGGTKLEIK
notes: Used in the assays as hybridoma culture supernatant; also called PEE 14C7 antibody; monoclonal antibody produced by the PEE 14C7 hybridoma
**Q.** With B1 as the binder, how does the “percentage of reactivity (Protein X absorbence/deamidated gamma-gliadin absorbence)” value [1] read?
**A.** The value was 26%.

**Q.** What about the “percentage of reactivity (Protein X absorbence/deamidated gamma-gliadin absorbence)” value (native ω-2 gliadin) of the same binder?
**A.** Its value is 39%.

**Q.** And the “percentage of reactivity (Protein X absorbence/deamidated gamma-gliadin absorbence)” value [2]?
**A.** Its value is 97%.

**Q.** What about the “percentage of reactivity (Protein X absorbence/deamidated gamma-gliadin absorbence)” value (native β-gliadin) of the same binder?
**A.** Its value is 4%.

**Q.** And the “percentage of reactivity (Protein X absorbence/deamidated gamma-gliadin absorbence)” value (native α-gliadin)?
**A.** Its value is 1%.

**Q.** And the “percentage of reactivity (Protein X absorbence/deamidated gamma-gliadin absorbence)” value (deamidated ω-2 gliadin)?
**A.** Its value is 94%.

**Q.** What about the “percentage of reactivity (Protein X absorbence/deamidated gamma-gliadin absorbence)” value (deamidated ω-5 gliadin) of the same binder?
**A.** The value was 99%.

**Q.** And the “percentage of reactivity (Protein X absorbence/deamidated gamma-gliadin absorbence)” value [3]?
**A.** Its value is 2%.

**Q.** What about the “percentage of reactivity (Protein X absorbence/deamidated gamma-gliadin absorbence)” value (native γ-gliadin) of the same binder?
**A.** The value was 1%.

**Q.** What about the “percentage of reactivity (Protein X absorbence/deamidated gamma-gliadin absorbence)” value [4] of the same binder?
**A.** Its value is 7%.

**Q.** What about the “percentage of reactivity (Protein X absorbence/deamidated gamma-gliadin absorbence)” value (deamidated α-gliadin) of the same binder?
**A.** Its value is 76%.
